Source: publication PMC6868389, “HER3-targeted protein chimera forms endosomolytic capsomeres and self-assembles into stealth nucleocapsids for systemic tumor homing of RNA interference in vivo” (Nucleic Acids Research, 2019)

Biological target: the molecule itself
Experiment: native gel or EMSA; native PAGE of purified HPK under neutral conditions (storage buffer 20 mM HEPES pH 7.45, 150 mM NaCl, 10% glycerol; pH 7.4), 4-15% gel, 25 mM Tris, 192 mM glycine pH 8.3

B1: HPK, HER3-targeted penton base chimera (heregulin ligand - linker - Ad5 penton base - decalysine) (other, human | adenovirus serotype 5 (Ad5))
chain: ELLPPRLKEMKSQESAAGSKLVLRCETSSEYSSLRFKWFKNGNELNRKNKPQNIKIQKKPGKSELRINKASLADSGEYMCKVISKLGNDSASANITIVESNEIITGMPASTEGAYVSSESPIRISVSTEGANTSSSTSTSTTGTSHLVKCAEKEKTFCVNGGECFMVKDLSNPSRYLCKCQPGFTGARCTENVPMKVQNQEKAEELYGGSGGSGSMRRAAMYEEGPPPSYESVVSAAPVAAALGSPFDAPLDPPFVPPRYLRPTGGRNSIRYSELAPLFDTTRVYLVDNKSTDVASLNYQNDHSNFLTTVIQNNDYSPGEASTQTINLDDRSHWGGDLKTILHTNMPNVNEFMFTNKFKARVMVSRLPTKDNQVELKYEWVEFTLPEGNYSETMTIDLMNNAIVEHYLKVGRQNGVLESDIGVKFDTRNFRLGFDPVTGLVMPGVYTNEAFHPDIILLPGCGVDFTHSRLSNLLGIRKRQPFQEGFRITYDDLEGGNIPALLDVDAYQASLKDDTEQGGGGAGGSNSSGSGAEENSNAAAAAMQPVEDMNDHAIRGDTFATRAEEKRAEAEAAAEAAAPAAQPEVEKPQKKPVIKPLTEDSKKRSYNLISNDSTFTQYRSWYLAYNYGDPQTGIRSWTLLCTPDVTCGSEQVYWSLPDMMQDPVTFRSTRQISNFPVVGAELLPVHSKSFYNDQAVYSQLIRQFTSLTHVFNRFPENQILARPPAPTITTVSENVPALTDHGTLPLRNSIGGVQRVTITDARRRTCPYVYKALGIVSPRVLSSRTFKKKKKKKKKK
notes: domain II, oligopeptide linker; domain III, adenovirus serotype 5 capsid penton base (PB); domain IV, carboxy-terminal decalysine tail (K10); About 92 kDa monomer; also called HerPBK10; HPK capsomere; not shown: His6, N-terminal, kept
stoichiometry N: ≥ 5
